Assay results from US12123009B2, “Methods and compositions for PPO herbicide tolerance in plants” (Monsanto Technology LLC, priority 2015, dated 2024).

Experiments:
R0 soybean plants = assay: R0 transgenic soybean herbicide tolerance at eleven weeks; type: in vivo; conditions: R0 plants sprayed with S-3100 at eleven weeks, rated seven days after treatment
Method: The plantlets in the non-sprayed containers corresponding to constructs having a score of 2 were transplanted at approximately 7 weeks post transformation and grown as R0 plants using standard methods known in the art. Plantlets corresponding to non-tolerant scores of 0 and 1 were also grown to serve as negative controls. The R0 plants were grown in a greenhouse under long-day nursery conditions (18 hr light at 80° F. then 6 hr dark at 74° F.) for approximately four weeks. At eleven weeks, the R0 plants were sprayed with two passes of the same herbicide solution (0.3 g of 5-3100) described above. Herbicide injury ratings were collected seven days after treatment.
The results of the herbicide tolerance application at eleven weeks to the R0 plants confirmed the low percent injury rating scores observed in the high-throughput screen at five weeks. Any injury rating of 30% or above was equivalent to non-transgenic soybean injury ratings. A few of the constructs stood out as providing very good tolerance to the herbicide application. […] Data are provided in Table 10, where n.d. indicates the analysis was not conducted.

soybean plantlets = assay: High-throughput soybean screening for herbicide tolerance (plantlets); type: in vivo, soybean (A3555); parameters: key: 0 for poor tolerance, high damage, low green coloration; 1 for some tolerance, average damage, moderate green coloration; 2 for good tolerance, low damage, high green coloration; conditions: S-3100 spray five weeks post-transformation, scored day four
Text: A high-throughput plant transformation and screening method was used to evaluate large numbers of constructs in transgenic plants for herbicide tolerance in early transformation plantlet tissue. This allowed for faster and higher volume screening of construct configurations and PPO enzymes.
This permitted the side-by-side comparison of seven different HemG PPO enzymes with thirty-seven different targeting peptides using the same promoter and 3′UTR elements for gene expression. These plant transformation constructs were used to transform soybean excised embryos (germplasm A3555) using A. tumefaciens and standard methods known in the art. Four hundred explants were inoculated for each construct resulting in twelve containers per construct. A sterile PPO herbicide solution was used for herbicide tolerance testing. The herbicide solution consisted of 0.3 g of S-3100 in crop oil concentrate (5.0 mL) and 495 mL of deionized water. This was filtered through a 0.45 micron Nalgene® Rapid-Flow™ Tissue Culture Filter Unit and Surfactant-Free Cellulose Acetate membrane filter unit (VWR, Radnor, PA, USA). The resulting sterile solution was shaken before application.
At five weeks post-transformation, four of the twelve plant containers per construct were sprayed with two passes of the sterile PPO herbicide solution. The treated plantlets were then enclosed in the container and received at least 15 hours of light exposure post spray each day for four days. At the end of day four post application of S-3100, the treated plantlets were photographed and scored on a visual scale of green coloration (green coloration was representative of healthy photosynthetic plant tissue as compared to photo-bleached tissue) versus damage. The scoring values were 0 for poor tolerance, high damage, low green coloration; 1 for some tolerance, average damage, moderate green coloration; and 2 for good tolerance, low damage, high green coloration. The scoring for each construct is presented in Table 9, where n.d. indicates the analysis was not conducted.

Molecule | percent injury score (R0 soybean plants; TP13) | percent injury score (R0 soybean plants; TP15) | percent injury score (R0 soybean plants; TP17) | coloration score (soybean plantlets; TP9) | coloration score (soybean plantlets; TP11) | coloration score (soybean plantlets; TP12) | coloration score (soybean plantlets; TP13) | coloration score (soybean plantlets; TP14) | coloration score (soybean plantlets; TP15) | coloration score (soybean plantlets; TP16) | coloration score (soybean plantlets; TP17) | coloration score (soybean plantlets; TP18) | coloration score (soybean plantlets; TP19) | coloration score (soybean plantlets; TP21) | coloration score (soybean plantlets; TP24) | coloration score (soybean plantlets; TP26) | coloration score (soybean plantlets; TP27) | coloration score (soybean plantlets; TP28) | coloration score (soybean plantlets; TP29) | coloration score (soybean plantlets; TP33) | further results
H_N20: microbial HemG protoporphyrinogen oxidase, SEQ ID NO:2 (SEQ ID NO:12 lacking start methionine) (protein, listed as Pantoea ananatis) MKALILFSTRDGQTQKIASAIADEIKGQQSCDVINIQDAKTLDWQQYDRVLIGASIRYGHFQPVVNEFVKHNLLALQQRVSGFFSVNLTARKPEKRSPETNAYTVKFLAQSPWQPDCCAVFAGALYYPRYRWFDRVMIQFIMRMTGGETDASKEVEYTDWQQVQRFARDFAQLPGKSY | 20% | 30% | 25% | 1 | 1 | 2 | 2 | 0 | 1 | 1 | 2 | 1 | 1 | 0 | 1 | 1 | 1 | 1 | 1 | 1 | percent injury score (R0 soybean plants; TP12): 20%; percent injury score (R0 soybean plants; TP20): 20%; percent injury score (R0 soybean plants; TP29): 30%; coloration score (soybean plantlets; TP20): 2; coloration score (soybean plantlets; TP22): 1; coloration score (soybean plantlets; TP23): 1; coloration score (soybean plantlets; TP25): 1; coloration score (soybean plantlets; TP30): 1; coloration score (soybean plantlets; TP31): 1; coloration score (soybean plantlets; TP32): 0
H_N50: microbial HemG protoporphyrinogen oxidase, SEQ ID NO:7 (SEQ ID NO:16 lacking start methionine) (protein, listed as Shimwellia blattae) MKTLILFSTRDGQTHKIARHIAGVLEEQGKACELVDLLQPGEPDWSTVECVVLGASIRYGHFHKSFIRFVNTHAQRLNNMPGALFTVNLVARKPEKQSPQTNSYTRKFLAASPWQPQRCQVFAGALRYPRYSWYDRMMIRLIMKMAGGETDTRKEVEYTDWQSVTRFAREIAQLPGETR | 40% | 40% | 40% | 1 | 0 | 1 | 1 | 1 | 2 | 0 | 1 | 1 | 0 | 1 | 1 | 1 | 1 | 1 | 1 | 1 | percent injury score (R0 soybean plants; TP9): 40%; percent injury score (R0 soybean plants; TP14): 40%; percent injury score (R0 soybean plants; TP22): 40%; percent injury score (R0 soybean plants; TP25): 35%; coloration score (soybean plantlets; TP10): 1; coloration score (soybean plantlets; TP22): 2; coloration score (soybean plantlets; TP23): 1; coloration score (soybean plantlets; TP25): 2; coloration score (soybean plantlets; TP30): 1; coloration score (soybean plantlets; TP31): 0; coloration score (soybean plantlets; TP32): 1; coloration score (soybean plantlets; TP34): 0; coloration score (soybean plantlets; TP36): 0; coloration score (soybean plantlets; TP37): 0
H_N30: microbial HemG protoporphyrinogen oxidase, SEQ ID NO:5 (SEQ ID NO:14 lacking start methionine) (protein, listed as Erwinia toletana) MKALILFSSREGQTREIASYIANSIKEEMECDVFNILRVEQIDWSQYDRVLIGGSIHYGHFHPAVAKFVKRHLHELQQRSSGFFCVNLTARKADKRTPQTNAYMRKFLLQSPWQPDCCAVFAGALRYTRYRWFDRVMIQLIMRMTGGETDTSKEVEYTDWTQVARFAQEFAHLPGKTQ | – | 35% | – | 1 | 1 | 1 | 1 | – | 1 | – | 1 | 0 | 0 | – | 1 | 0 | 0 | 0 | 1 | 1 | percent injury score (R0 soybean plants; TP1): 5%; percent injury score (R0 soybean plants; TP9): 35%; percent injury score (R0 soybean plants; TP11): 35%; percent injury score (R0 soybean plants; TP26): 35%; coloration score (soybean plantlets; TP10): 0
